Here are results for four substances from patent US20100036095A1.

Assay [1] addresses human CD59 20A23A (human) (UniProt P13987). Description: flow cytometry on CHO cells expressing the CD59 form. A general note: A flow cytometer gives signals particle by particle.
Assay [2] deals with human CD59 51A plus 20-23A (human) (UniProt P13987). Described as above.
The target in another assay is human CD59 D24A (human) (UniProt P13987). The assay is described as above.
Another assay concerns the target human CD59 F23G (human) (UniProt P13987). The assay is described as above.
For another assay, the target named is human CD59 F42A (human) (UniProt P13987). The description is as above.
Another assay deals with human CD59 H44A (human) (UniProt P13987). Described as above.
Another assay deals with human CD59 T52A (human) (UniProt P13987). The assay is described as above.
Another assay addresses human CD59 W40A (human) (UniProt P13987). The assay is described as above.
Assay [3] has as its target wild type human CD59, epitope-tagged, GPI-anchored on CHO cells (human) (UniProt P13987). The assay is described as above.
The target in a further assay is human CD59 5R (human) (UniProt P13987). Described as above.
The next assay deals with human CD59 9R (human) (UniProt P13987). The assay is described as above.
Assay [4] deals with C8/C9 (complement components C8 and C9 of normal human serum, in the assembling membrane attack complex) (human) (UniProt P07357). Kind of assay: cell-based or functional assay.
Sequence of C8/C9 (complement components C8 and C9 of normal human serum, in the assembling membrane attack complex) (human) (P07357 31-584 limits assumed, chain 1 of 4): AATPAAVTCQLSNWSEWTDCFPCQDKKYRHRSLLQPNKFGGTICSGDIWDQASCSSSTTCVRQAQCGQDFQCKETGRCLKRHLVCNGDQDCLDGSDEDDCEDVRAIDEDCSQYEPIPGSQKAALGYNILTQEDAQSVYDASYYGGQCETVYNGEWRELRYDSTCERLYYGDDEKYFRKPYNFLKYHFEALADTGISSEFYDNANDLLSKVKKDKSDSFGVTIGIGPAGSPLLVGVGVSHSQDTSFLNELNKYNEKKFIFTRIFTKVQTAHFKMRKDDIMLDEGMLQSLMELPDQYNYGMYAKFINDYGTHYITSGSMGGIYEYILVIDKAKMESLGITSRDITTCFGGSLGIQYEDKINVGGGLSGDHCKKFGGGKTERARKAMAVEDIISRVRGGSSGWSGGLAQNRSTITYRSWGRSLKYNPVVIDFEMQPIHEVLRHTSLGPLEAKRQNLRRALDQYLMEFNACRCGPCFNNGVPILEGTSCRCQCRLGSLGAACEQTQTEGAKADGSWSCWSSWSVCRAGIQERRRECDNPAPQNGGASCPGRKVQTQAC
Sequence of C8/C9 (complement components C8 and C9 of normal human serum, in the assembling membrane attack complex) (human) (P07358 55-591 limits assumed, chain 2 of 4, further chain): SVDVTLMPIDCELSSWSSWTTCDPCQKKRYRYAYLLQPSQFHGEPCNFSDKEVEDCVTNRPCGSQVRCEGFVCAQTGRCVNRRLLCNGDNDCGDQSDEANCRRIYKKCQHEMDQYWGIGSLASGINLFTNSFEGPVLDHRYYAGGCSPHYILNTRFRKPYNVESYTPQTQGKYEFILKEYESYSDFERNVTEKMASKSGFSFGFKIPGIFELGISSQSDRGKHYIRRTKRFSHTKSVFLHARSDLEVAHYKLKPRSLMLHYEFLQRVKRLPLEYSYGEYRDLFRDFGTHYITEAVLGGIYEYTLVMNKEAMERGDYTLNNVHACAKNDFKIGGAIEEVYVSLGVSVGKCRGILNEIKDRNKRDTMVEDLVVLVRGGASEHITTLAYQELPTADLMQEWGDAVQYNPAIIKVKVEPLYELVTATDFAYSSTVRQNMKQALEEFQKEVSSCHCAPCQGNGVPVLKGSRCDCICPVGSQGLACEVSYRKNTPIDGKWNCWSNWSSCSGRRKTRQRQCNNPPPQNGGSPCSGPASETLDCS
Sequence of C8/C9 (complement components C8 and C9 of normal human serum, in the assembling membrane attack complex) (human) (P07360 21-202 limits assumed, chain 3 of 4, further chain): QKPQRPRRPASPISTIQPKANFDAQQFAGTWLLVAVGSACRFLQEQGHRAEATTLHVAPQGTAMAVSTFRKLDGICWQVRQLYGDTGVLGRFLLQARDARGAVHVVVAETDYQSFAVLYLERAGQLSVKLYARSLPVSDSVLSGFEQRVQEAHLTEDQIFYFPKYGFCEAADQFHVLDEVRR
Sequence of C8/C9 (complement components C8 and C9 of normal human serum, in the assembling membrane attack complex) (human) (P02748 22-559 limits assumed, chain 4 of 4, further chain): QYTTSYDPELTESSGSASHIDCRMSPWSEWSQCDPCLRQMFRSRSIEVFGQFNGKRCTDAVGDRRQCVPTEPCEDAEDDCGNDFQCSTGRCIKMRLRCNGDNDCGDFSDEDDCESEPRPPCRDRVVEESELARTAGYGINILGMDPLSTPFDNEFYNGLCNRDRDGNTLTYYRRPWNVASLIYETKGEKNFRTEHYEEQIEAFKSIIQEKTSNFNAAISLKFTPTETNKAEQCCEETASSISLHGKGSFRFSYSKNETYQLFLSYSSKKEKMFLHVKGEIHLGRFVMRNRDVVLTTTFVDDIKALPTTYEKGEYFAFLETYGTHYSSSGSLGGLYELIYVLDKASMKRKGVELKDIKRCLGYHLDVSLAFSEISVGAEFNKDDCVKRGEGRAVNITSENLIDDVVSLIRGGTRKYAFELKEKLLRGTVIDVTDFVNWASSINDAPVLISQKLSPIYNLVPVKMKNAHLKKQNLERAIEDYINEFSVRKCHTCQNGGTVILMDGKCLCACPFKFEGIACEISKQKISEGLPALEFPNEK

Sequence of human CD59 F42A (human) (P13987 26-102 F67A): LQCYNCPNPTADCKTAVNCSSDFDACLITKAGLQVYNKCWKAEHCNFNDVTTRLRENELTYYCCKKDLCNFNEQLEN
Sequence of human CD59 20A23A (human) (P13987 other isoform, or with tags, fused parts or gaps): as the sequence (P13987 26-102 F67A) above, with S20A, F23A, A42F counted along it
Sequence of human CD59 T52A (human) (P13987 26-102, stated change not applied): as the sequence (P13987 26-102 F67A) above, with A42F counted along it
Sequence of wild type human CD59, epitope-tagged, GPI-anchored on CHO cells (human) (P13987 26-102 limits assumed): as the sequence (P13987 26-102 F67A) above, with A42F counted along it
Sequence of human CD59 W40A (human) (P13987 26-102 W65A): as the sequence (P13987 26-102 F67A) above, with W40A, A42F counted along it
Sequence of human CD59 D24A (human) (P13987 26-102 D49A): as the sequence (P13987 26-102 F67A) above, with D24A, A42F counted along it
Sequence of human CD59 51A plus 20-23A (human) (P13987 other isoform, or with tags, fused parts or gaps): as the sequence (P13987 26-102 F67A) above, with S20A, S21A, D22A, F23A, A42F, T51A counted along it
Sequence of human CD59 H44A (human) (P13987 26-102 H69A): as the sequence (P13987 26-102 F67A) above, with A42F, H44A counted along it
Sequence of human CD59 F23G (human) (P13987 26-102 F48G): as the sequence (P13987 26-102 F67A) above, with F23G, A42F counted along it
Sequence of human CD59 9R (human) (P13987 26-102): as the sequence (P13987 26-102 F67A) above, with A42F counted along it
Sequence of human CD59 5R (human) (P13987 26-102): as the sequence (P13987 26-102 F67A) above, with A42F counted along it

For the substance anti-CD59 mAb MEM43 (antibody), the percent of relative mean fluorescence compared to wt CD59 came to 98.1% in assay [1]; 92.3% in assay [2]; 3.5% with human CD59 D24A (human); 98.8% in the assay with human CD59 F23G (human); 99.7% in the assay with human CD59 F42A (human); 88.8% with human CD59 H44A (human). The percent of relative mean fluorescence compared to wt CD59 with human CD59 T52A (human) was found to be 99.2%; in the assay with human CD59 W40A (human), 6.2%; in [3] it was 100%.

Regarding anti-CD59 mAb MEM43.5 (antibody), the percent of relative mean fluorescence compared to wt CD59 in assay [1] was determined as 97.7%; in assay [2], 98.1%; with human CD59 5R (human), 8.2%; with human CD59 9R (human), 98.4%; with human CD59 D24A (human), 1.9%; with human CD59 F23G (human) it was 98.9%. Also, the percent of relative mean fluorescence compared to wt CD59 was found to be 99.9% with human CD59 F42A (human); 85.9% with human CD59 H44A (human); 99.2% with human CD59 T52A (human); 0.7% in the assay with human CD59 W40A (human); 100% in assay [3].

As for anti-CD59 mAb YTH53.1 (antibody), the percent of relative mean fluorescence compared to wt CD59 is 35.7% in [1]; 18.3% in assay [2]; 47.9% with human CD59 5R (human); 100% with human CD59 9R (human); 5% in the assay with human CD59 D24A (human); 99.3% in the assay with human CD59 F23G (human). In addition, the percent of relative mean fluorescence compared to wt CD59 came to 99.8% in the assay with human CD59 F42A (human); 58.7% with human CD59 H44A (human); 99.3% in the assay with human CD59 T52A (human); 1% in the assay with human CD59 W40A (human); 100% in [3].

Regarding “human CD59 51A20A (from UniProt P13987 26-102)”, in [4], the increase in inhibitory activity compared to the wt protein is 165 % increase and the inhibitory activity relative to the single mutant T29A was 2 fold of T29A.
